According to article PMC12743552, “Key residues regulating von Willebrand factor A1/A2 interactions: insights from molecular dynamics simulations and experimental validation” (Research and Practice in Thrombosis and Haemostasis, 2025):
Changes are numbered by the printed parent chain. Numbers in names are those of the source.

B1: VWF-A1 mutant A1_mut (D1323A/R1334A/Q1367A) (domain or fragment)
chain: QEPGGLVVPPTDAPVSPTTLYVEDISEPPLHDFYCSRLLDLVFLLDGSSRLSEAEFEVLKAFVVDMMERLRISQKWVRVAVVEYHAGSHAYIGLKDAKRPSELRRIASQVKYAGSQVASTSEVLKYTLFAIFSKIDRPEASRITLLLMASQEPQRMSRNFVRYVQGLKKKKVIVIPVGIGPHANLKQIRLIEKQAPENKAFVLSSVDELEQQRDEIVSYLCDLAPEAPPPTLPPD
notes: von Willebrand factor, A1 domain, residues Q1238-D1472, with D1323A, R1334A and Q1367A; source: HEK293F cells, culture medium collected, purified (Ni2+-Hi-Trap chelating column); not shown: His tag, N-terminal, kept
B2: recombinant VWF-A2 (von Willebrand factor A2 domain, amino acids M1473-G1672), wild type (domain or fragment)
chain: MAQVTVGPGLLGVSTLGPKRNSMVLDVAFVLEGSDKIGEADFNRSKEFMEEVIQRMDVGQDSIHVTVLQYSYMVTVEYPFSEAQSKGDILQRVREIRYQGGNRTNTGLALRYLSDHSFLVSQGDREQAPNLVYMVTGNPASDEIKRLPGDIQVVPIGVGPNANVQELERIGWPNAPILIQDFETLPREAPDLVLQRCCSG
modifications: biotinylated in the BLI assay (site not stated); not said to be biotinylated in the AFM assay
notes: von Willebrand factor, A2 domain, residues M1473-G1672; cloned from a full-length VWF plasmid (MiaoLingBio); Secreted into the medium of HEK293F cells; The discussion calls the host HEK293 cells; source: HEK293F cells, culture medium collected, purified (Ni2+-Hi-Trap chelating column); not shown: His tag, N-terminal, kept
B3: VWF-A2 mutant A2_mut (V1546A/R1575A/E1598A) (domain or fragment)
chain: B2 chain with V74A, R103A, E126A
notes: von Willebrand factor, A2 domain, residues M1473-G1672, with V1546A, R1575A and E1598A; source: HEK293F cells, culture medium collected, purified (Ni2+-Hi-Trap chelating column); not shown: His tag, N-terminal, kept

Experiments:
[1] = target: von Willebrand factor A2 G1481-R1668 (Homo sapiens) (UniProt P04275); settings: cited from earlier work
[2] = target: B2; experiment: atomic force microscopy (adhesion frequency and rupture force); VWF-A2 (15 ug/mL) held on the cantilever tip and VWF-A1 or its variants (15 ug/mL) on polystyrene dishes, each through adsorbed mouse anti-His mAb; blocked with 2% BSA; approach-retraction speed 200 nm/s in 2% BSA; 100 contact cycles a point; settings: both partners purified
[3] = target: T1, recombinant VWF-A1 (von Willebrand factor A1 domain, amino acids Q1238-D1472), wild type (UniProt P04275 1238-1472); experiment: BLI; biotinylated A2 (10 ug/mL) immobilised on streptavidin biosensors, quenched with biocytin; A1 125-4000 nM in solution; Octet R8, 30 °C, 1000 rpm; PBS with 0.02% Tween-20 and 0.1% BSA; global fit to a 1:1 Langmuir model; settings: both partners purified
T1 construct: von Willebrand factor, A1 domain, residues Q1238-D1472; cloned from a full-length VWF plasmid (MiaoLingBio); Secreted into the medium of HEK293F cells; The tag is 6xHis to judge from the anti-6xHis antibody used for capture; also called WT A1; WT VWF-A1; source: HEK293F cells, culture medium collected, purified (Ni2+-Hi-Trap chelating column); not shown: His tag, N-terminal, kept

[4] = target: B1; experiment: as above; settings: both partners purified

**Q.** For “von Willebrand factor A1 A1 (from UniProt P04275)”, which Kd [1] is on record?
**A.** 0.0649 µM

**Q.** What does the source list for B1?
**A.** adhesion frequency [2]: 14.5%; average rupture force [2]: 41.5 pN; central peak value (XC) of the rupture force distribution [2]: 35 pN

**Q.** What does the source list for B2?
**A.** Kd [3]: 2.16 µM; koff [3]: 0.037 s⁻¹; kon [3]: 17000 M⁻¹ s⁻¹; Kd [4]: 6.1 µM; koff [4]: 0.081 s⁻¹; kon [4]: 13000 M⁻¹ s⁻¹

**Q.** Which Kd [3] does the source give for B3 here?
**A.** 4.2 µM

**Q.** And the koff [3]?
**A.** 0.046 s⁻¹

**Q.** What about the kon [3] of the same molecule?
**A.** 11000 M⁻¹ s⁻¹
